Results published in patent US20220096547A1.

Target: human TLR5 (human) (UniProt O60602)
Test: cell-based or functional assay

UniProt O60602, sequence (O60602 21-858): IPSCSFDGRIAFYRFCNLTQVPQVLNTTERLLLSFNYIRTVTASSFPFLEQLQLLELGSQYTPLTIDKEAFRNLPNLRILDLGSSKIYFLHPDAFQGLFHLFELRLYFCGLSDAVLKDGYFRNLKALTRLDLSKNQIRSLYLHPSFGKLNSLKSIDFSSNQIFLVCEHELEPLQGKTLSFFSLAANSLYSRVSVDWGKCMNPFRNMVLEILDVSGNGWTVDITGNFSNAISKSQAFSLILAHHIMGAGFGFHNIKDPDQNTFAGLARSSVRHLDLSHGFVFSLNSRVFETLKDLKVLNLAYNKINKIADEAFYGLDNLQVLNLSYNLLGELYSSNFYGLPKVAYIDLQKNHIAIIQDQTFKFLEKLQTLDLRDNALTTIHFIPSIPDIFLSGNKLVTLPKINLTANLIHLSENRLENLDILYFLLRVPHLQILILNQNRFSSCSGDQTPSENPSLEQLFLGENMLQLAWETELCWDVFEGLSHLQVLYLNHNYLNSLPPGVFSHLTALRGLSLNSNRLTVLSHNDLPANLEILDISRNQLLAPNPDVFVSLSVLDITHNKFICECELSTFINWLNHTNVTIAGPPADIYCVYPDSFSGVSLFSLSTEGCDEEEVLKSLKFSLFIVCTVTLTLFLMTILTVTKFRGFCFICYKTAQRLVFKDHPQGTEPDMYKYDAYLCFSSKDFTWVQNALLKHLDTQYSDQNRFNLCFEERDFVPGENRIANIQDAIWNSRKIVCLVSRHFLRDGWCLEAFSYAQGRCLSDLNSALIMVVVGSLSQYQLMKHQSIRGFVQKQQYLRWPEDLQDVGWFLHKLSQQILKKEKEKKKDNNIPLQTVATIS

Row | Substance | TLR5 activation activity (NF-κB SEAP reporter assay) compared to full-length flagellin
1 | Salmonella typhimurium flagellin fragment Flic-6a (from UniProt P06175 71-493) (ligand) | > 50%
2 | Salmonella typhimurium flagellin fragment Flic-7a (from UniProt P06175 71-493) (ligand) | > 50%
3 | Salmonella typhimurium flagellin fragment Flic-8a (from UniProt P06175 71-493) (ligand) | > 50%
4 | Salmonella typhimurium flagellin fragment Flic-12a (from UniProt P06175 37-493) (ligand) | > 50%
5 | Salmonella typhimurium flagellin fragment Flic-14a (from UniProt P06175 37-493) (ligand) | > 50%
6 | Salmonella typhimurium flagellin fragment Flic-15a (from UniProt P06175 37-493) (ligand) | > 50%
7 | Salmonella typhimurium flagellin fragment Flic-20a (from UniProt P06175 51-493) (ligand) | > 50%
8 | Salmonella typhimurium flagellin fragment Flic-21a (from UniProt P06175 51-469) (ligand) | > 50%
9 | Salmonella typhimurium flagellin fragment Flic-22a (from UniProt P06175 51-493) (ligand) | > 50%
10 | Salmonella typhimurium flagellin fragment Flic-23a (from UniProt P06175 51-493) (ligand) | > 50%
